Test results published in patent US20170360893A1 (Merck Sharp & Dohme, published 2017).
*1 amine or outer side, *2 acyl side, *3 side chain or, on linkers, in order; H or OH if unused. Where no end group is shown, it is not given here. Side-chain parts run from the residue outwards. [ ]: non-standard residue; d: D form. The star is where a group is joined. γGlu = O=C(O)[C@H](CCC(=O)[*:2])N[*:1]; Palmitoyl = CCCCCCCCCCCCCCCC(=O)*; Nle = CCCC[C@H](N)C(=O)O; Aib = CC(C)(N)C(=O)O

How the values were obtained:
human glucagon receptor = human glucagon receptor (human, UniProt P47871 26-477); experiment: cell-based or functional assay
[1] = biological target: human glucagon-like peptide 1 receptor (human, UniProt P43220 24-463); experiment: cell-based or functional assay

human glucagon receptor, sequence (P47871 26-477): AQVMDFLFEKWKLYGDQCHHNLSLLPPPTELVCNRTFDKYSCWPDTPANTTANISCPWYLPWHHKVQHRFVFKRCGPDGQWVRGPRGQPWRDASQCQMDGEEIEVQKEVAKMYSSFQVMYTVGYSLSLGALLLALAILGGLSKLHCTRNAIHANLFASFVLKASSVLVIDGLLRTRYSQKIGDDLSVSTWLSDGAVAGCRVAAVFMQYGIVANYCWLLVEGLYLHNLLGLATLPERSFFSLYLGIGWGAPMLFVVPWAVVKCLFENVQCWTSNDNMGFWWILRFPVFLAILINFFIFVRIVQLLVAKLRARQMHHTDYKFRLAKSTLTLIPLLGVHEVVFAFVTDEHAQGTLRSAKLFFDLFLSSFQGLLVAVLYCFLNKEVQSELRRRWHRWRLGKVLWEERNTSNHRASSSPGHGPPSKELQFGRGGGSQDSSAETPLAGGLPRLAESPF

Binder | GCGR EC50 (nM) human; cAMP production (HitHunter cAMP XS) in cells expressing human GCGR, 20% human serum (human glucagon receptor) [nM] | GLPR1 EC50 (nM) human; cAMP production (HitHunter cAMP XS) in cells expressing human GLP-1R, 20% human serum [1] [nM]
H[dS]QGTFTSDK([γGlu-γGlu-Palmitoyl])SKYLDVRAAQDFVQWLLDT-NH2 (N-terminus assumed; SMILES CCCCCCCCCCCCCCCC(=O)N[C@@H](CCC(=O)N[C@@H](CCC(=O)NCCCC[C@H](NC(=O)[C@H](CC(=O)O)NC(=O)[C@H](CO)NC(=O)[C@@H](NC(=O)[C@H](Cc1ccccc1)NC(=O)[C@@H](NC(=O)CNC(=O)[C@H](CCC(N)=O)NC(=O)[C@@H](CO)NC(=O)[C@@H](N)Cc1c[nH]cn1)[C@@H](C)O)[C@@H](C)O)C(=O)N[C@@H](CO)C(=O)N[C@@H](CCCCN)C(=O)N[C@@H](Cc1ccc(O)cc1)C(=O)N[C@@H](CC(C)C)C(=O)N[C@@H](CC(=O)O)C(=O)N[C@H](C(=O)N[C@@H](CCCNC(=N)N)C(=O)N[C@@H](C)C(=O)N[C@@H](C)C(=O)N[C@@H](CCC(N)=O)C(=O)N[C@@H](CC(=O)O)C(=O)N[C@@H](Cc1ccccc1)C(=O)N[C@H](C(=O)N[C@@H](CCC(N)=O)C(=O)N[C@@H](Cc1c[nH]c2ccccc12)C(=O)N[C@@H](CC(C)C)C(=O)N[C@@H](CC(C)C)C(=O)N[C@@H](CC(=O)O)C(=O)N[C@H](C(N)=O)[C@@H](C)O)C(C)C)C(C)C)C(=O)O)C(=O)O) [Co-agonist Peptide 3] | 0.08 | 0.13
H[Aib]VGTFTSDK([γGlu-γGlu-Palmitoyl])SKYLD[Aib]RAAQDFVQWL[Nle]DT-NH2 [Co-agonist Peptide 4] | 0.89 | 0.1
